Source: US20230167458A1, “FORSKOLIN-INDUCIBLE PROMOTERS AND HYPOXIA-INDUCIBLE PROMOTERS” (ASKLEPIOS BIOPHARMACEUTICAL, INC., priority 2020, published 2023)

Legend:
HEK293-F = test: Luciferase time course after forskolin induction, transient transfection of suspension HEK293-F; format: cell-based, human; conditions: 20 µM forskolin
Method: The tested promoters were synthesised directly upstream of the ATG of PM-RQ plasmid and the suspension cell lines were transiently transfected with the PM-RQ plasmid.
40 ml of cells were grown in a 250 ml vented Erlenmeyer flask (Sigma-Aldrich CLS431144) at 37° C., 20% O2, 8% CO2 with agitation at 100 rpm. Cells were seeded as described in the manufacturer's instructions (300,000 cells/ml). HEK293-F were obtained from Thermofisher, R79007.
One day before transfection, the cells were counted using a haemocytometer and split to 500,000 cells/ml.
On the day of transfection, the cells are seeded to 1,000,000 cells/ml in 500 μl of appropriate medium (Freestyle 293 expression medium, 12338002) in a 24 well plate. […] of DNA per well was then added to 10 μl of OptiMem medium (Thermofisher; 11058021) and incubated for 5 minutes at room temperature.
Concurrently, 0.625 μl of Max reagent (Thermofisher, 16447100) was made up to 10 μl by addition of OptiMem and incubated for 5 minutes at room temperature. After this incubation, both mixes were added to the same tube and incubated at room temperature for 25-30 minutes. […]
24 hours after transfection, the promoters were induced by addition of […] forskolin and luciferase activity was measured 0, 3, 5 and 24 hours after induction. Luciferase activity was measured as previously described.

CHO-GS-KSV1 cell line = test: SEAP expression in stably transfected CHO-GS-KSV1, forskolin or NKH477 induction; format: cell-based, chinese hamster; conditions: stable CHO-GS-KSV1, SEAP, forskolin or NKH477
Method: The forskolin-inducible promoters were then tested in a stably transfected CHO-GS-KSV1 cell line.
• CD-CHO media (Life technologies, CAT #10743029) • Corning 125 mL Polycarbonate Erlenmeyer Flask with Vent Cap (CAT #734-1885). • Gene Pulser® Electroporation Cuvettes, 0.4 cm gap (BioRad, CAT #165-2088) • Gene Pulser Xcell Total System (BioRad, CAT, #1652660) • GS-vector DNA ([…] in 100 μL TE buffer) linearised with Sca1 • Suspension cultures of CHOK1SV GS-KO host cells.
Cell suspensions of 6×10^5 cells per mL were incubated on an orbital shaker set at 8% CO2, 20% O2, 37° C., 85% relative humidity and 140 rpm overnight. 2.86×10^7 cells were centrifuged at 200 g for 3 minutes. Media was then aspirated and cell pellet resuspended in 2 mL fresh CD-CHO media to obtain a concentration of 1.43×10^7 cells per mL. 700 μL of cell suspension was added to each of two electroporation cuvettes each containing […] of linearised DNA in 100 μL of sterile TE buffer (Thermofisher, 12090015). Each cuvette was electroporated, delivering a single pulse of 300V, […] with resistance to infinity. Immediately after delivery of pulse electroplated cells were transferred to Erlenmeyer 125 mL flask containing 20 mL of CD-CHO media pre-warmed to 37° C. Electroporated cells from two cuvettes are combined into a single 125 mL flask to generate one pool of cells. Cells are cultured on an orbital shaker set at 8% CO2, 20% O2, 37° C., 85% relative humidity and 140 rpm. Cells are transferred to fresh CD-CHO media 24 hours after transfection and cell cultures monitored and given fresh CD-CHO media every 2-4 days. Usually after about 10-14 days cell numbers will be high enough to start passaging.
The transfected DNA was the pXC-17.4 expression vector (Lonza Biologics plc) where one of the promoter constructs (or a control promoter (CMV-IE) have been cloned upstream of the secreted alkaline phosphatase (SEAP) gene, which had been cloned into the multiple cloning site within the vector expression cassette. Promoters were closed into the pXC-17.4 vector using Gibson assembly. The pXC-17.4 expression vector is designed for making stable cell lines in the CHO-GSK1SV cell line as it contains the […] gene which has been knocked out of the cell line. Therefore, selection of cells in glutamine drop-out medium will select for cells that have stably integrated the plasmid.
The responsiveness of the RTV-019 promoter to different concentrations of forskolin and […] was tested in the stably transfected CHO-GS-KSV1 cell line. To this end, the stably transfected CHO-GS cells were seeded at 500,000 cells/ml and allowed to grow for 24 hrs. At this point the cells were induced by addition of the respective concentrations of forskolin and NKH477 and SEAP expression was measured as described below after 24 hours.
The promoter activity and inducibility of FMP-02, FORCYB-001, RTV-017, FORCSV-10, FOR-CMC-009, FLP-01 and RTV-019 were also tested in the stably transfected CHO-GS-KSV1 cell line. To this end, the stably transfected CHO-GS cells were seeded at 500,000 cells/ml and allowed to grow for 24 hrs. At this point the cells were exposed to […] forskolin or […] NKH477 for 24 hours. After this point, the SEAP activity in the medium was assessed as described below.
SEAP Reporter Gene Assay, chemiluminescent (Roche, CAT #11 779 842 001) was used to measure SEAP activity as per the manufacturer's protocol. All reagents and samples were fully pre-equilibrated at room temperature. Culture supernatant was collected from the stably transfected CHO-GS at the specific time points (0 h and 24 h). The supernatant was diluted 1:4 in dilution buffer and heat treated at 65° C. for 30 minutes. The heat-treated sample was then centrifuged for 30 s at maximum speed. 50 μl of the heat-treated sample was then added to 5 μl of inactivation buffer and incubated for 5 min at room temperature. 50 μl of substrate reagent was then added and incubated for 10 min at room temperature. […]

B1: FMP-02: synthetic forskolin-inducible promoter, SEQ ID NO: 41; 8× AP1(1) TFBS and MinTK minimal promoter (nucleic acid)
DNA: TGAGTCAGATGATGCGTAGCTAGTAGTTGAGTCAGATGATGCGTAGCTAGTAGTTGAGTCAGATGATGCGTAGCTAGTAGTTGAGTCAGATGATGCGTAGCTAGTAGTTGAGTCAGATGATGCGTAGCTAGTAGTTGAGTCAGATGATGCGTAGCTAGTAGTTGAGTCAGATGATGCGTAGCTAGTAGTTGAGTCAGTAGTCGTATGCTGATGCGCAGTTAGCGTAGCTGAGGTACCGTCGACGATATCGGATCCTTCGCATATTAAGGTGACGCGTGTGGCCTCGAACACCGAGCGACCCTGCAGCGACCCGCTTAA
modifications: Synp-FMP-02
notes: 8× AP1(1) TFBS and MinTK minimal promoter
- relative rank of promoter (fold induction/strength) (HEK293-F): weakest
- relative rank of promoter strength (CHO-GS-KSV1 cell line): weakest
